assay: yeast display, Sf9 membrane polyspecificity reagent, FACS + sequencing; frameworks hold sequencing errors
Procedure, shortened: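 Galactose-induced (36–48 hours) yeast carrying a synthetic nanobody display library were exposed to 10% biotinylated, detergent-solubilized Sf9 membrane reagent at 4 °C for 1 hour. FACS followed streptavidin microbead enrichment, using low and high (top ~1%) gates for expression (anti-HA) and reagent binding (streptavidin). Colony PCR, MiSeq 2 × 250 sequencing and CDR-length filtering followed. Labels for polyreactivity reflect the gate of origin.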

Sequence | polyreactivity (PSR sort gate)
QVQLVETGGGLVQAGGSLRLSCAASGIIFATYAMGWYRQAPGKEMELVAAISRRGGYTYYADSVKGRFTISRDNANNTVYLQMNSLKPEDSAVYYCAKSNTLASVAHDYWGQGTQVTVTS | high polyreactivity
QVQLVESGGGLVQAGGSLRLSCAASGRTFPGYAMGWYRQAPGKERELVAAISWSGTSTYYADSVKGRFTISRDNAKNTVYLQMNSLKPEDTAVYYCNKVYTYSAPYYYWGQGTQVTVSS | high polyreactivity
QVQLVESGGGLVQAGGSLRLSCAASGNISLPYTMGWYRQAPGKERELVAAISWDGGRTYYADSVKGRFTISRDNAKNTDYLQMNSLKPEDTAVYYCGARFFLVTLDYWGQGTQVTVSS | low polyreactivity
QVQHVESGGGLVQAGGSLRISCAPSGRTFFPNAMGCYRQAPGKEREFVAAITKTDDSTYYADSVKGRFTISRDNAKNTVYLPMNSLKPEDTAVYYCNAGDTQIRFYYWGQGTQETVSS | low polyreactivity
QVQLVESCGGLVQAGGSLRLSCAASGSTFSLYGMGWYRQAPAKERELVATITYSGGRTYYADSVKGRFTISLDNAKNTVYLQLNSLKPEDTAVYYCAARLAPLYRTYYYWGQGTQVTVSS | low polyreactivity
QVQLQESGGGQVLAGGSLRLSCAASGSISAQAYMGWDRQAPGKEREHVAGINYGDNTNYADSVKGRFTISRDNEHRVSADEQPVSGRYRGVLLRGFLELFYYYIYWGQGTQVNVSS | high polyreactivity
QVQLVESCGGIVQAGVSLRLSCAASGSIFGIYAMGWYRQAPGKERELVAAIDSSGTSTYYADSVKGRFTISRDNEKNTVYLQMNSLKPEDTAVNSSAAYHRISKNNYWGQGTEVTVSS | low polyreactivity
QGQLVESGGGLVQAGGSLRLSCAASGSTFDNYAMGWYRQAPGKERELVAAISSSSSRTYYADSVKGRFTISRDNAKNTVYLQMNSLKPADTAVYYCAKRRSIGYYYWGQGTQVTVSS | high polyreactivity
QVQLVESGGGLVHAGGSLRLSCAASGRTFPTNAMGWYRQSPGKDRELVAAISWSGGGTYYADSVKGRFTISRDNAKNTIYLQMNSLKPEDTAVYYCAADDTPDTIYGSDYWGQGTQVTVSS | low polyreactivity
QVQLVESGGGLVQAGGSLRLSCAASGSTFRSNAMGWYRQAPGKERELVAVISTRGGRTYYADSVKGRFTISRDNAKNTVYLQMNSLKPEDTAVYYCNTQISGSPYPYYYWGQGTQVTVSS | high polyreactivity
QVQLVESVGGLVQAGGSLRLSCAASGSTFGHYAMGWYRQAPGKERELVSAISTSGGRTYYADSVKGRFTISRDNAKNTVYLQMNSLKPEDTAVYYCATRRYGVDKFDYWGQGTQVTVSS | high polyreactivity
QVKLVESGGGLVQAGGSISLTCAASGSIFYKYVMGWYRQAPGKERELVAAISRGGGSTYYADSVKGRFTISRDNAKNTVYLQMNSLKPEDTAVYYCYAVGRPRYGHGFDHWGQGTQVTVSS | high polyreactivity
QVQLVESGGGLVQAGGSLRLSCAASGRILVGYAMGRYRQAPGKERELVAAINRSGSSTYYADSVKGRFTISRDNAKNTVYLQRNSLNPEDTAVYYCNAPSGNRYGPRYDYWGQGTQVTVSS | high polyreactivity
QVQLVESGGGLVQAGGSLRLSCAASGLIFVNAMGWYRQAPGKEREFVAAITYSTGSTYYADSVKGRFTISRDIAKNTVYLQMNSLKPEDTAVYYCAKDRSGHGTERDYWGQGTQVTVSS | low polyreactivity
QVQVVESGGGLVQAGGSLRLSCAASGSFFTRYAIGWYRQAPGKERELVAAISGSGGSTYYADSVKGLFTISRDNAKITVSLQMNSLKPEDTAVYYCAARDYWGQGTQVTVSS | high polyreactivity
QVQLVESGGGLVQAGGSLRLSCAASGNIFGHYAMGWYRQAPGKERELVAAISSRGGRTYYADSVKGRFTISRDNAKNTVYLQMNSLKPEDTAVYYCAHKTRQKFGYWGQGTQVTVSS | high polyreactivity
QVQLVESGGGLFQAGGSLRLSCAASGSTFGNNAMGWYRQAPGKERELVAAISRSGGNTYYADSVKGRFTISRDNAKNTVYLQMNSLKPEDTAVYYCAAGKLYAAGVYYLRRLYYWGQGTQVTVSS | high polyreactivity
QVQLVESGGGLVQAGGSLRLSCAASGRIFEGYAMGWYRQAPGKEELVAAITSDASTYYADSVKGRFTISRDNAKNTVYLQMNSLNPEDTAVYYCNAYTRGLEYDYWGQGTQVTVSS | high polyreactivity
QVQLEESGGGLVQAGGSLRLSCAASGRTFVFNAMGWYRQAPGTERELVASINSRVGSTYYADSVKGRFTISRDNAKNTVYLQMNSLKPEDTAVYYCAARSYSSYYYWGQGTQVTVSS | high polyreactivity
QVQLVESGGRLVQAGGSRRLSCAASGFTFGIYAMGWYRQAPGKARELVAAITSGGITKYADSVKGRFTISRDNAKNTVYLQMKSLKPEDTAVYYCAATGFRQSYDSTWYRYDYWGQGTQVTVSS | low polyreactivity
QVQLVESGGGLVQAGGSLRLSCAASGSIFVRNAMGWYRQAPGKEREFVAIRFSGATTYYADSVKGRFTISRDNAKNTVYLQMNSLKPEDTAVYYCAAVARTYGRTSYYWGQGTQVTVSS | high polyreactivity

From the nanobody polyreactivity screen of Harvey et al. (2022)
